Assay results reported in patent US11505576B2, “Polypeptides based on a scaffold” (AFFIBODY AB, priority 2018, dated 2022).

Experiments:
[1] = Fraction of soluble product on expression in E. coli, estimated from SDS-PAGE; type: physicochemical; conditions: MGSSHHHHHHGSS-[Y#####]-A; for Estimated soluble fraction: Table 7, Ylib002Naive.I selection; for Est soluble fraction: Table 9, mutation study 5
Method: E. coli T7E2 cells were transformed with plasmids containing the gene fragment of each respective Y variant. The resulting recombinant strains were generally cultivated in media supplemented with 50 μg/ml kanamycin at 30-37° C. in 50 ml scale using the EnPresso protocol (Enpresso GmbH). In order to induce protein expression, isopropyl-β-D-1-thiogalactopyranoside (IPTG) was added to a final concentration of 0.5 mM at an optical density at 600 nm (OD600) of approximately 10. After induction, the cultures were incubated for 16 h. The cells were harvested by centrifugation. Alternatively, the culture was performed at 37° C. in 980 ml of TSB-YE medium (tryptic soy broth 30 g/l supplemented with yeast extract 5 g/l) supplemented with 50 μg/ml kanamycin, and protein expression induced with 0.2 mM IPTG at OD600=2, followed by incubation for 5 h before harvesting of the cells by centrifugation. The total yield as well as the fraction of soluble and insoluble product of the respective Y variant was estimated based on SDS-PAGE analysis.

C4 = assay: Kinetic analysis using surface plasmon resonance (Biacore T200), immobilized C4; type: binding; conditions: Table 7; MGSSHHHHHHGSS-[Y#####]-A
Method: (§1) Kinetic constants (ka and kd) and affinities (KD) were determined for His6-tagged Y variants using a Biacore T200 instrument (GE Healthcare). Target proteins C4, IL-6 and insulin, respectively, were immobilized in separate flow cells on the carboxylated dextran layer of different CM5 chip surfaces (GE Healthcare). Immobilization was performed using amine coupling chemistry according to the manufacturer's protocol and PBS pH 7.4 supplemented with 0.1 Tween20 (PBST 0.1%) as running buffer. The ligand immobilization levels on the surfaces were 3280-8830 RU for C4, 495-1184 RU for IL-6, and 270-282 RU for insulin. One flow cell surface on each chip was activated and deactivated for use as blank during analyte injections. In the kinetic experiment, PBST 0.1% was used as running buffer at a flow rate of 30 μl/min. The analytes, i.e. Y variants, were each diluted in PBST 0.1 buffer at concentrations of 1000, 500, 100, 50 and 10 nM and injected for 5 min, followed by dissociation in running buffer for 3 min. After dissociation, the surfaces were regenerated with one injection of 30 μl 10 mM HCl. Kinetic constants were calculated from the sensorgrams using the Langmuir 1:1 model of Biacore T200 Evaluation software 2.0 (GE Healthcare).
(§2) Produced Y variants were subjected to CD and SPR analyses according to the methods described in Example 1.
The Y variants were cloned, produced and characterized according to the general methods described in Example 1. Produced Y variants with point mutations and/or N-terminal or C-terminal extensions were subjected to CD and SPR analyses as described in Example 1.
(§3) Produced Y variants were subjected to CD and SPR analyses according to the methods described in Example 1. In addition, CD spectra of selected IL-6 binding variants were also recorded at 60, 70, 80 and 90° C.

[2] = Circular dichroism spectroscopy analysis (CD spectra, variable temperature measurement, refolding); type: physicochemical; conditions: for Tm: Table 7, MGSSHHHHHHGSS-[Y#####]-A
Method in brief: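 Y variants at 0.5 mg/ml in PBS were scanned from 250 to 195 nm at 20° C. in a 1 mm cell. Tm came from the 221 nm signal during heating from 20 to 90° C. at 5° C./min, and a second 20° C. spectrum after heating assessed refolding. Selected IL-6 binders were also recorded at 60, 70, 80 and 90° C.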

IL-6 = target: T1, IL-6 (Homo sapiens, UniProt P05231); assay: Kinetic analysis using surface plasmon resonance (Biacore T200), immobilized IL-6; type: binding; conditions: MGSSHHHHHHGSS-[Y#####]-A
T1 construct: purchased R&D Systems 206-IL-200/CF
T1 sequence (P05231 30-212): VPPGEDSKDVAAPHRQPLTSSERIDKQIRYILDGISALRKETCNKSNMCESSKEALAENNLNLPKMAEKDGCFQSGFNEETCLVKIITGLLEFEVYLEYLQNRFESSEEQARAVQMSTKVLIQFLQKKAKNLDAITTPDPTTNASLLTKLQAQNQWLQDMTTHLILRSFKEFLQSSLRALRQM
Method: as §1, §2, §3
The Y variants were cloned, produced and characterized according to the general methods described in Example 1. Produced Y variants with point mutations were subjected to CD and SPR analyses as described in Example 1. In addition, CD spectra of the IL-6 binding variants were also recorded at 60, 70, 80 and 90° C.

Substance	Kd (C4)	kd (C4)	Kd (IL-6; Table 9, mutation study 5)	ka (IL-6; Table 9, mutation study 5)	kd (IL-6; Table 9, mutation study 5)	Estimated soluble fraction [1]	ka (C4)	Tm [2]	Est soluble fraction [1]	also measured
Y02330: C4 binding Y variant from Ylib002Naive.I, SEQ ID NO:37 (LAEAKEAAIAELDSKGVGAELIKKIQHAESVEGVQFWKQEILAYLPA; Engineered C4 binding Y variant)	48 nM	0.0046 s⁻¹				100%	96000 M⁻¹ s⁻¹	49 °C		
Y02415: IL-6 binding Y variant from Ylib002Naive.I, SEQ ID NO:74 (LAEAKEAAIAELDSKGVGAGDIKDIQDALLVEIVQLLKQAILAVLPA; Engineered IL-6 binding Y variant)						100%				Kd (IL-6; Table 7): 160 nM; ka (IL-6; Table 7): 9700 M⁻¹ s⁻¹; kd (IL-6; Table 7): 0.0015 s⁻¹
Y02309: C4 binding Y variant from Ylib002Naive.I, SEQ ID NO:35 (LAEAKEAAIAELDSKGVGADLIKKIQKAESVEGVQFWKQEILATLPA; Engineered C4 binding Y variant)	70 nM	0.0025 s⁻¹				100%	36000 M⁻¹ s⁻¹	56 °C		
Y02697: IL-6 binding Y variant, Y02444 with I9L, SEQ ID NO:81 (LAEAKEAALAELDSKGVGAVEIKQIQEALLVEIVQLLKQAILAVLPA; Engineered IL-6 binding Y variant)			150 nM	50000 M⁻¹ s⁻¹	0.009 s⁻¹				100%	
Y02700: IL-6 binding Y variant, Y02415 with I9L, SEQ ID NO:84 (LAEAKEAALAELDSKGVGAGDIKDIQDALLVEIVQLLKQAILAVLPA; Engineered IL-6 binding Y variant)			62 nM	46000 M⁻¹ s⁻¹	0.0025 s⁻¹				100%	
Y02701: IL-6 binding Y variant, Y02415 with K15Y, SEQ ID NO:85 (LAEAKEAAIAELDSYGVGAGDIKDIQDALLVEIVQLLKQAILAVLPA; Engineered IL-6 binding Y variant)			210 nM	21000 M⁻¹ s⁻¹	0.0036 s⁻¹				100%	
Y02337: C4 binding Y variant from Ylib002Naive.I, SEQ ID NO:38 (LAEAKEAAIAELDSKGVGAAEIKWIQHASTVEGVQGRKQQILAELPA; Engineered C4 binding Y variant)	1900 nM	0.81 s⁻¹				100%	420000 M⁻¹ s⁻¹	31 °C		
Y02444: IL-6 binding Y variant from Ylib002Naive.I, SEQ ID NO:75 (LAEAKEAAIAELDSKGVGAVEIKQIQEALLVEIVQLLKQAILAVLPA; Engineered IL-6 binding Y variant)						100%				Kd (IL-6; Table 7): 61 nM; ka (IL-6; Table 7): 90000 M⁻¹ s⁻¹; kd (IL-6; Table 7): 0.0055 s⁻¹; Structure at elevated temperature ([2]; CD spectra recorded at 60, 70, 80 and 90° C.): partial structure also at temperatures up to 90 °C
Y02698: IL-6 binding Y variant, Y02444 with K15Y, SEQ ID NO:82 (LAEAKEAAIAELDSYGVGAVEIKQIQEALLVEIVQLLKQAILAVLPA; Engineered IL-6 binding Y variant)			120 nM	28000 M⁻¹ s⁻¹	0.0033 s⁻¹				100%	
Y02447: IL-6 binding Y variant from Ylib002Naive.I, SEQ ID NO:76 (LAEAKEAAIAELDSKGVGAHGIKEIQDAILVEIVQLLKQAILAALPA; Engineered IL-6 binding Y variant)						100%				Kd (IL-6; Table 7): 160 nM; ka (IL-6; Table 7): 11000 M⁻¹ s⁻¹; kd (IL-6; Table 7): 0.0017 s⁻¹
Y02495: IL-6 binding Y variant from Ylib002Naive.I, SEQ ID NO:79 (LAEAKEAAIAELDSKGVGAEEIKEIQGAMLVEIVQLLKQAILAVLPA; Engineered IL-6 binding Y variant)						100%				Kd (IL-6; Table 7): 240 nM; ka (IL-6; Table 7): 7100 M⁻¹ s⁻¹; kd (IL-6; Table 7): 0.0017 s⁻¹
Y02465: IL-6 binding Y variant from Ylib002Naive.I, SEQ ID NO:78 (LAEAKEAAIAELDSKGVGANHIKAIQHAQFVEIVQLLKQAILAVLPA; Engineered IL-6 binding Y variant)						100%				Kd (IL-6; Table 7): 270 nM; ka (IL-6; Table 7): 7500 M⁻¹ s⁻¹; kd (IL-6; Table 7): 0.0021 s⁻¹
Y00792: C4 binding Y variant from Ylib002Naive.I, SEQ ID NO:32 (LAEAKEAAIAELDSKGVGADLIKKIQQASSVEGVQFWKQEILAQLPA; Engineered C4 binding Y variant)	62 nM	0.0017 s⁻¹				100%	27000 M⁻¹ s⁻¹	58 °C		
Y02358: C4 binding Y variant from Ylib002Naive.I, SEQ ID NO:39 (LAEAKEAAIAELDSKGVGADDIKLIQDAPSVEGVQEIKQFILAQLPA; Engineered C4 binding Y variant)	16 nM	0.0014 s⁻¹				100%	90000 M⁻¹ s⁻¹	51 °C		
Y02303: C4 binding Y variant from Ylib002Naive.I, SEQ ID NO:34 (LAEAKEAAIAELDSKGVGAEEIKWIQNAWSVEGVQIMKQQILAELPA; Engineered C4 binding Y variant)	2200 nM	0.21 s⁻¹				100%	96000 M⁻¹ s⁻¹	43 °C		

More lines, main results first:

Kd (C4)	kd (C4)	Kd (IL-6; Table 9, mutation study 5)	ka (IL-6; Table 9, mutation study 5)	kd (IL-6; Table 9, mutation study 5)	Substance	Estimated soluble fraction [1]	ka (C4)	Tm [2]	Est soluble fraction [1]	also measured
		200 nM	19000 M⁻¹ s⁻¹	0.0029 s⁻¹	Y02699: IL-6 binding Y variant, Y02444 with Q26E, SEQ ID NO:83 (LAEAKEAAIAELDSKGVGAVEIKQIEEALLVEIVQLLKQAILAVLPA; Engineered IL-6 binding Y variant)				100%	
		440 nM	16000 M⁻¹ s⁻¹	0.007 s⁻¹	Y02702: IL-6 binding Y variant, Y02415 with Q26E, SEQ ID NO:86 (LAEAKEAAIAELDSKGVGAGDIKDIEDALLVEIVQLLKQAILAVLPA; Engineered IL-6 binding Y variant)				100%	
